Laboratory results from patent publication US20140378657A1.

Tests used:
[1] = biological target: biotinylated maltose binding protein (MBP-AviTag fusion, Avidity, LLC) [MBP: P0AEX9]; assay: SPR, biotinylated MBP row of Table 2; footnote: value determined by the surface plasmon resonance method described in Qureshi and Wong (2002)
[2] = biological target: biotinylated maltose binding protein (MBP-AviTag fusion, Avidity, LLC) [MBP: P0AEX9]; assay: SPR (BIAcoreX), biotinylated MBP-AviTag as immobilised ligand
[3] = biological target: biotinylated maltose binding protein (MBP-AviTag fusion, Avidity, LLC) [MBP: P0AEX9]; assay: affinity column, elution with 5 mM d-biotin

kon [1]	Kd [2]	koff [2]	kon [2]	recovery from affinity column [3]	Substance
5.13e+06 M⁻¹ s⁻¹					wild-type streptavidin (from UniProt P22629 25-183)
	11.5 nM	0.00265 s⁻¹	230000 M⁻¹ s⁻¹	90%	streptavidin mutein SBPM18 (S27A, G48T) (designed binder)
